# B1: GST-tagged wild-type yeast PEX39 (GST–PEX39) [yeast] / yeast PEX7 [yeast (S. cerevisiae)] (parent complex)
# chain 1: MAAGGELSYEELLDHILNNKPIPNIVEVPNVTLDEGLASTPSLRPRPRPWEGQLQHQSHQGSLDKPNISLDIDQESLEGMTSLTRLSECYDIQSKLQINDSDNDNDDNNNDNNKGDGNDDDNNTVTANPTAR
# chain 2: MLRYHMQGFSGYGVQYSPFFDNRLAVAAGSNFGLVGNGKLFILEIDRSGRIVEVNSFLTQDCLFDLAWNESHENQVLVAQGDGTLRLFDTTFKEFPIAIFKEHEREVFSCNWNLVNRQNFLSSSWDGSIKIWSPLRKQSLMTLTPRPLEITKMVDPLNAIILKKKSFTGISKNRNCVYQAQFSPHDQNLVLSCSGNSYASLFDIRLPSGKNQNNFLVHSGLEALTCDFNKYRPYVVATGGVDNAIRIWDIRMLNKNESATIKRTVPGQLHNSSCINEIPNAHGLAIRKVTWSPHHSNILMSASYDMTCRIWRDLSNDGAKETYKTNSTDATKGSIFNFTQHSEFVFGADWSLWGKPGYVASTAWDGNLFVWNGLG
# Variants of: B1
# Experiment: bead sedimentation (GST pull-down depletion) assay, SDS-PAGE with Coomassie quantification of PEX7 left in the supernatant; 1 µM yeast PEX7; varying GST-PEX39 concentrations; 1 h; 25 °C; parent: 0.6 nM
row,screen value [nM],Variant
1,610,chain 1 MAAGGELSAEEAADHAANNKPIPNIVEVPNVTLDEGLASTPSLRPRPRPWEGQLQHQSHQGSLDKPNISLDIDQESLEGMTSLTRLSECYDIQSKLQINDSDNDNDDNNNDNNKGDGNDDDNNTVTANPTAR
